# In paper PMC3568674:
# B1: GbAH (Granulibacter bethesdensis allophanate hydrolase), wt (Granulibacter bethesdensis CGDNIH1) (protein)
# chain: MTLSMTLEGIQAFLAQGGTIEQVVTEAYDRITRYGDKAVWIALRPREEVLAEARALDASPATGKPLYGVPFAVKDNIDVAGLPCSAACPAFTYEPDRDATVVARLRAAGAIVLGKTNLDQFATGLVGTRSPFGAPRCVFDQDYISGGSSSGSAVAVAAGLVAFSLGTDTAGSGRVPAAFNNLVGVKPTKGLLSTSGVVPACRSLDCVTVFAASVAEGTLIRRIAEGYDAADPYSRPSQKRRLPHVGLRVGVPRQDQREFYGNTAYAALYQRALDEMISLDAELVEIDFAPFRDAAKLLYGGPWVAERLEAVGDHLSRAPDSFDPVVRSIVETAKTLSAVDAFRGQYELAALTQQANAQWARMDILLLPTAPTIHKVEAVMADPVRLNSQLGHYTNFVNLLDCAAIAVPAGFIETGLPFGVTLVGPAFSDDSMALIADRLHRRLEPGYGQDRASLPDPVLEETNPEQIALAVVGAHLSGQPLHWQLTERNATLVARTRTAPEYRLYALAETIPPKPGLVADPDFTGDGIEIELWSMDAEAFGTFTALVPAPLAIGTLRLADGTSVKGFVCEPAGLVGAQDITRFGGWRAYLAQ
# Experiments:
# NC(=O)NC(=O)O = experiment: purified protein; assay type: biochemical, Granulibacter bethesdensis; details: 50 mM HEPES pH 7.4, 50 mM NaCl, 1 mM EGTA, 25 °C
# purified protein = substrate: NC(=O)NC(=O)O; experiment: purified protein; assay type: biochemical, Granulibacter bethesdensis; details: 50 mM HEPES pH 7.4, 50 mM NaCl, 1 mM EGTA, 25 °C; remark: listed apart in the source
Molecule,Km (NC(=O)NC(=O)O) [mM],kcat (NC(=O)NC(=O)O) [s⁻¹],kcat/Km (NC(=O)NC(=O)O) [M⁻¹ s⁻¹],Km (purified protein) [mM],kcat (purified protein) [s⁻¹],kcat/Km (purified protein) [M⁻¹ s⁻¹]
"GbAH (Granulibacter bethesdensis allophanate hydrolase), wt (Granulibacter bethesdensis CGDNIH1; Y299A)",3.0 ± 0.4,0.071 ± 0.002,24 ± 3,–,–,–
"GbAH (Granulibacter bethesdensis allophanate hydrolase), wt (Granulibacter bethesdensis CGDNIH1; Y299F)",1.2 ± 0.1,0.042 ± 0.001,35 ± 3,–,–,–
B1,–,–,–,0.10 ± 0.002,18 ± 1,180000 ± 3000
